Results taken from patent publication US10738094B2, “Peptides and combination of peptides for use in immunotherapy against ovarian cancer and other cancers” (immatics biotechnologies GmbH, priority 2015, dated 2020).

Target: HLA-A*02:01 (Homo sapiens, UniProt P04439, D140Y/D185E/D98H/E176V/E277Q/G131W/G231S/I119V/I121R/I166T/I218V/L300P/L318F/N151K/N90K/P208A/P217A/Q86G/Q94H/R138H/R169H/T345S)
Test: MHC binding assay (UV-ligand exchange, beta2m ELISA)
Conditions: binding to HLA-A*02:01 ranged by peptide exchange yield (UV-ligand exchange, β2m ELISA)
Source text: Candidate peptides for T cell based therapies according to the present invention were further tested for their MHC binding capacity (affinity). The individual peptide-MHC complexes were produced by UV-ligand exchange, where a UV-sensitive peptide is cleaved upon UV-irradiation, and exchanged with the peptide of interest as analyzed. Only peptide candidates that can effectively bind and stabilize the peptide-receptive MHC molecules prevent dissociation of the MHC complexes. To determine the yield of the exchange reaction, an ELISA was performed based on the detection of the light chain (β2m) of stabilized MHC complexes. The assay was performed as generally described in Rodenko et al. (Rodenko et al., 2006).
96 well MAXISorp plates (NUNC) were coated over night with 2 ug/ml streptavidin in PBS at room temperature, washed 4× and blocked for 1 h at 37° C. in 2% BSA containing blocking buffer. […] Peptide-MHC monomers of the UV-exchange reaction were diluted 100 fold in blocking buffer. Samples were incubated for 1 h at 37° C., washed four times, incubated with 2 ug/ml HRP conjugated anti-β2m for 1 h at 37° C., washed again and detected with TMB solution that is stopped with […]. Absorption was measured at 450 nm. Candidate peptides that show a high exchange yield (preferably higher than 50%, most preferred higher than 75%) are generally preferred for a generation and production of antibodies or fragments thereof, and/or T cell receptors or fragments thereof, as they show sufficient avidity to the MHC molecules and prevent dissociation of the MHC complexes.

Which Peptide exchange does the source give for “153 (FLIANVLYL; listed as Homo sapiens) [compound 153]” here?
The Peptide exchange was ““+” (≥10% = +)”.

How did the Peptide exchange turn out when “154 (ALDDGTPAL; listed as Homo sapiens) [compound 154]” was run?
Its Peptide exchange is ““++” (≥20% = ++)”.

For “155 (RVANLHFPSV; listed as Homo sapiens) [compound 155]”, which Peptide exchange is on record?
The Peptide exchange was ““+++” (≥50 = +++)”.

Which Peptide exchange does the source give for “157 (SLNDEVPEV; listed as Homo sapiens) [compound 157]” here?
Its Peptide exchange is ““++” (≥20% = ++)”.

Which Peptide exchange does the source give for “158 (KLFDVDEDGYI; listed as Homo sapiens) [compound 158]” here?
The Peptide exchange was ““+++” (≥50 = +++)”.

“159 (GLVGNPLPSV; listed as Homo sapiens) [compound 159]” was tested. Which Peptide exchange did it give?
The Peptide exchange was ““++++” (≥75% = ++++)”.

“160 (FLFDEEIEQI; listed as Homo sapiens) [compound 160]” was tested. Which Peptide exchange did it give?
Its Peptide exchange is ““+++” (≥50 = +++)”.

Which Peptide exchange does the source give for “161 (ALLEGVNTV; listed as Homo sapiens) [compound 161]” here?
Its Peptide exchange is ““+++” (≥50 = +++)”.

For “162 (YQQAQVPSV; listed as Homo sapiens) [compound 162]”, which Peptide exchange is on record?
Its Peptide exchange is ““+++” (≥50 = +++)”.

For “163 (ALDEMGDLLQL; listed as Homo sapiens) [compound 163]”, which Peptide exchange is on record?
The Peptide exchange was ““+++” (≥50 = +++)”.

With “164 (ALLPQPKNLTV; listed as Homo sapiens) [compound 164]” as the substance, how does the Peptide exchange read?
The Peptide exchange was ““+++” (≥50 = +++)”.

How did the Peptide exchange turn out when “165 (SLLDEIRAV; listed as Homo sapiens) [compound 165]” was run?
The Peptide exchange was ““+++” (≥50 = +++)”.

“167 (KVLEVTEEFGV; listed as Homo sapiens) [compound 167]” was tested. Which Peptide exchange did it give?
Its Peptide exchange is ““+++” (≥50 = +++)”.

How did the Peptide exchange turn out when “168 (KILDADIQL; listed as Homo sapiens) [compound 168]” was run?
Its Peptide exchange is ““++++” (≥75% = ++++)”.

How did the Peptide exchange turn out when “169 (NLPEYLPFV; listed as Homo sapiens) [compound 169]” was run?
The Peptide exchange was ““+++” (≥50 = +++)”.

For “170 (RLQETLSAA; listed as Homo sapiens) [compound 170]”, which Peptide exchange is on record?
Its Peptide exchange is ““+++” (≥50 = +++)”.

“171 (LLLPLQILL; listed as Homo sapiens) [compound 171]” was tested. Which Peptide exchange did it give?
The Peptide exchange was ““+++” (≥50 = +++)”.

“172 (VLYSYTIITV; listed as Homo sapiens) [compound 172]” was tested. Which Peptide exchange did it give?
Its Peptide exchange is ““++” (≥20% = ++)”.

With “173 (LLDSASAGLYL; listed as Homo sapiens) [compound 173]” as the substance, how does the Peptide exchange read?
Its Peptide exchange is ““+++” (≥50 = +++)”.

“174 (ALAQYLITA; listed as Homo sapiens) [compound 174]” was tested. Which Peptide exchange did it give?
Its Peptide exchange is ““+++” (≥50 = +++)”.

With “175 (YLFENISQL; listed as Homo sapiens) [compound 175]” as the substance, how does the Peptide exchange read?
The Peptide exchange was ““+++” (≥50 = +++)”.

“176 (YLMEGSYNKVFL; listed as Homo sapiens) [compound 176]” was tested. Which Peptide exchange did it give?
The Peptide exchange was ““++” (≥20% = ++)”.

“177 (YLLPEEYTSTL; listed as Homo sapiens) [compound 177]” was tested. Which Peptide exchange did it give?
The Peptide exchange was ““++++” (≥75% = ++++)”.

How did the Peptide exchange turn out when “178 (ALTEIAFVV; listed as Homo sapiens) [compound 178]” was run?
The Peptide exchange was ““++++” (≥75% = ++++)”.

For “179 (KVLNELYTV; listed as Homo sapiens) [compound 179]”, which Peptide exchange is on record?
The Peptide exchange was ““+++” (≥50 = +++)”.

Which Peptide exchange does the source give for “180 (FQIDPHSGLVTV; listed as Homo sapiens) [compound 180]” here?
Its Peptide exchange is ““++” (≥20% = ++)”.

Which Peptide exchange does the source give for “181 (LLWAGTAFQV; listed as Homo sapiens) [compound 181]” here?
The Peptide exchange was ““+++” (≥50 = +++)”.

For “182 (MLLEAPGIFL; listed as Homo sapiens) [compound 182]”, which Peptide exchange is on record?
The Peptide exchange was ““+++” (≥50 = +++)”.

With “183 (FGLDLVTEL; listed as Homo sapiens) [compound 183]” as the substance, how does the Peptide exchange read?
Its Peptide exchange is ““+++” (≥50 = +++)”.

Which Peptide exchange does the source give for “184 (YLMDINGKMWL; listed as Homo sapiens) [compound 184]” here?
Its Peptide exchange is ““+++” (≥50 = +++)”.

Which Peptide exchange does the source give for “185 (FLIDDKGYTL; listed as Homo sapiens) [compound 185]” here?
Its Peptide exchange is ““++” (≥20% = ++)”.

With “186 (TLFFQQNAL; listed as Homo sapiens) [compound 186]” as the substance, how does the Peptide exchange read?
Its Peptide exchange is ““++” (≥20% = ++)”.

“187 (RQISIRGIVGV; listed as Homo sapiens) [compound 187]” was tested. Which Peptide exchange did it give?
The Peptide exchange was ““+++” (≥50 = +++)”.

“188 (GLFPVTPEAV; listed as Homo sapiens) [compound 188]” was tested. Which Peptide exchange did it give?
The Peptide exchange was ““+++” (≥50 = +++)”.

For “189 (ALQRKLPYV; listed as Homo sapiens) [compound 189]”, which Peptide exchange is on record?
The Peptide exchange was ““+++” (≥50 = +++)”.

“190 (FLSSLTETI; listed as Homo sapiens) [compound 190]” was tested. Which Peptide exchange did it give?
Its Peptide exchange is ““+++” (≥50 = +++)”.

For “191 (LLQEGQALEYV; listed as Homo sapiens) [compound 191]”, which Peptide exchange is on record?
Its Peptide exchange is ““++” (≥20% = ++)”.

How did the Peptide exchange turn out when “192 (KMLDGASFTL; listed as Homo sapiens) [compound 192]” was run?
Its Peptide exchange is ““+++” (≥50 = +++)”.

With “193 (QLLDADGFLNV; listed as Homo sapiens) [compound 193]” as the substance, how does the Peptide exchange read?
The Peptide exchange was ““+++” (≥50 = +++)”.

Which Peptide exchange does the source give for “194 (ALPLFVITV; listed as Homo sapiens) [compound 194]” here?
Its Peptide exchange is ““+++” (≥50 = +++)”.

“195 (GLFADLLPRL; listed as Homo sapiens) [compound 195]” was tested. Which Peptide exchange did it give?
Its Peptide exchange is ““+++” (≥50 = +++)”.

For “196 (YLYSVEIKL; listed as Homo sapiens) [compound 196]”, which Peptide exchange is on record?
Its Peptide exchange is ““++++” (≥75% = ++++)”.

“197 (ALGPEGGRV; listed as Homo sapiens) [compound 197]” was tested. Which Peptide exchange did it give?
The Peptide exchange was ““++” (≥20% = ++)”.

How did the Peptide exchange turn out when “198 (KTINKVPTV; listed as Homo sapiens) [compound 198]” was run?
The Peptide exchange was ““+++” (≥50 = +++)”.

“200 (LLFGSVQEV; listed as Homo sapiens) [compound 200]” was tested. Which Peptide exchange did it give?
The Peptide exchange was ““+++” (≥50 = +++)”.

How did the Peptide exchange turn out when “201 (RLVDYLEGI; listed as Homo sapiens) [compound 201]” was run?
The Peptide exchange was ““+++” (≥50 = +++)”.

How did the Peptide exchange turn out when “202 (ALLDQQGSRWTL; listed as Homo sapiens) [compound 202]” was run?
The Peptide exchange was ““+++” (≥50 = +++)”.

With “204 (KIAENVEEV; listed as Homo sapiens) [compound 204]” as the substance, how does the Peptide exchange read?
The Peptide exchange was ““++” (≥20% = ++)”.

With “205 (SLYPGTETMGL; listed as Homo sapiens) [compound 205]” as the substance, how does the Peptide exchange read?
The Peptide exchange was ““+++” (≥50 = +++)”.

For “206 (VLQEGKLQKLAQL; listed as Homo sapiens) [compound 206]”, which Peptide exchange is on record?
The Peptide exchange was ““+++” (≥50 = +++)”.

For “207 (GLTSTNAEV; listed as Homo sapiens) [compound 207]”, which Peptide exchange is on record?
Its Peptide exchange is ““++” (≥20% = ++)”.

With “208 (KISPVTFSV; listed as Homo sapiens) [compound 208]” as the substance, how does the Peptide exchange read?
The Peptide exchange was ““+++” (≥50 = +++)”.

“209 (KLIESKHEV; listed as Homo sapiens) [compound 209]” was tested. Which Peptide exchange did it give?
Its Peptide exchange is ““++” (≥20% = ++)”.

How did the Peptide exchange turn out when “210 (LLLNAVLTV; listed as Homo sapiens) [compound 210]” was run?
The Peptide exchange was ““++” (≥20% = ++)”.

“211 (LLWPGAALL; listed as Homo sapiens) [compound 211]” was tested. Which Peptide exchange did it give?
Its Peptide exchange is ““++” (≥20% = ++)”.

Which Peptide exchange does the source give for “212 (ALWDQDNLSV; listed as Homo sapiens) [compound 212]” here?
The Peptide exchange was ““++” (≥20% = ++)”.

Which Peptide exchange does the source give for “214 (FLLDLDPLLL; listed as Homo sapiens) [compound 214]” here?
Its Peptide exchange is ““+++” (≥50 = +++)”.

“215 (QLINHLHAV; listed as Homo sapiens) [compound 215]” was tested. Which Peptide exchange did it give?
The Peptide exchange was ““+++” (≥50 = +++)”.

How did the Peptide exchange turn out when “216 (NLWEDPYYL; listed as Homo sapiens) [compound 216]” was run?
The Peptide exchange was ““+++” (≥50 = +++)”.

“217 (ALIHPVSTV; listed as Homo sapiens) [compound 217]” was tested. Which Peptide exchange did it give?
The Peptide exchange was ““++” (≥20% = ++)”.

“218 (SALEELVNV; listed as Homo sapiens) [compound 218]” was tested. Which Peptide exchange did it give?
The Peptide exchange was ““++” (≥20% = ++)”.

With “219 (KLSDIGITV; listed as Homo sapiens) [compound 219]” as the substance, how does the Peptide exchange read?
Its Peptide exchange is ““+++” (≥50 = +++)”.

Which Peptide exchange does the source give for “220 (LLQKFVPEI; listed as Homo sapiens) [compound 220]” here?
Its Peptide exchange is ““++” (≥20% = ++)”.

Which Peptide exchange does the source give for “221 (ALYEEGLLL; listed as Homo sapiens) [compound 221]” here?
The Peptide exchange was ““++” (≥20% = ++)”.

How did the Peptide exchange turn out when “222 (NLIENVQRL; listed as Homo sapiens) [compound 222]” was run?
The Peptide exchange was ““++” (≥20% = ++)”.

“223 (ALLENIALYL; listed as Homo sapiens) [compound 223]” was tested. Which Peptide exchange did it give?
The Peptide exchange was ““+++” (≥50 = +++)”.

“224 (TLIDAQWVL; listed as Homo sapiens) [compound 224]” was tested. Which Peptide exchange did it give?
Its Peptide exchange is ““+++” (≥50 = +++)”.

“225 (SLLKVLPAL; listed as Homo sapiens) [compound 225]” was tested. Which Peptide exchange did it give?
The Peptide exchange was ““+++” (≥50 = +++)”.

“226 (MLYVVPIYL; listed as Homo sapiens) [compound 226]” was tested. Which Peptide exchange did it give?
Its Peptide exchange is ““++” (≥20% = ++)”.

“227 (ALMNTLLYL; listed as Homo sapiens) [compound 227]” was tested. Which Peptide exchange did it give?
Its Peptide exchange is ““++” (≥20% = ++)”.

For “228 (AMQEYIAVV; listed as Homo sapiens) [compound 228]”, which Peptide exchange is on record?
Its Peptide exchange is ““++” (≥20% = ++)”.

With “229 (RLPGPLGTV; listed as Homo sapiens) [compound 229]” as the substance, how does the Peptide exchange read?
Its Peptide exchange is ““++” (≥20% = ++)”.
